# Laboratory results: IntAct's records for PubMed 35512704
# B1: Speckle-type POZ protein (Homo sapiens), O43791 (parent)
# chain: MSRVPSPPPPAEMSSGPVAESWCYTQIKVVKFSYMWTINNFSFCREEMGEVIKSSTFSSGANDKLKWCLRVNPKGLDEESKDYLSLYLLLVSCPKSEVRAKFKFSILNAKGEETKAMESQRAYRFVQGKDWGFKKFIRRDFLLDEANGLLPDDKLTLFCEVSVVQDSVNISGQNTMNMVKVPECRLADELGGLWENSRFTDCCLCVAGQEFQAHKAILAARSPVFSAMFEHEMEESKKNRVEINDVEPEVFKEMMCFIYTGKAPNLDKMADDLLAAADKYALERLKVMCEDALCSNLSVENAAEILILADLHSADQLKTQAVDFINYHASDVLETSGWKSMVVSHPHLVAEAYRSLASAQCPFLGPPRKRLKQS
# Variants of: B1
# Details: with brd4_human BRD4, O60885
row,effect of a mutation on the interaction,Variant
1,disrupting interaction strength,F102C

# Variants of: B1
# Details: with ncoa3_human NCOA3, Q9Y6Q9
row,effect of a mutation on the interaction,Variant
1,disrupting interaction strength,F102C

# Variants of: B1
# Details: with jun_human JUN
row,effect of a mutation on the interaction,Variant
1,disrupting interaction strength,F102C

# Variants of: B1
# Details: with akt1_human AKT1, P31749
row,effect of a mutation on the interaction,Variant
1,with no effect,F102C

# Variants of: B1
# Details: with alk_human ALK
row,effect of a mutation on the interaction,Variant
1,with no effect,F102C

# Variants of: B1
# Details: with aph1a_human APH1A
row,effect of a mutation on the interaction,Variant
1,with no effect,F102C

# Variants of: B1
# Details: with arnt_human ARNT
row,effect of a mutation on the interaction,Variant
1,with no effect,F102C

# Variants of: B1
# Details: with arc1a_human ARPC1A
row,effect of a mutation on the interaction,Variant
1,with no effect,F102C

# Variants of: B1
# Details: with bakor_human ATG14, Q6ZNE5
row,effect of a mutation on the interaction,Variant
1,with no effect,F102C

# Variants of: B1
# Details: with atm_human ATM
row,effect of a mutation on the interaction,Variant
1,with no effect,F102C

# Variants of: B1
# Details: with atpb_human ATP5F1B
row,effect of a mutation on the interaction,Variant
1,with no effect,F102C

# Variants of: B1
# Details: with aurkb_human AURKB
row,effect of a mutation on the interaction,Variant
1,with no effect,F102C

# Variants of: B1
# Details: with axin2_human AXIN2, Q9Y2T1
row,effect of a mutation on the interaction,Variant
1,with no effect,F102C

# Variants of: B1
# Details: with ufo_human AXL
row,effect of a mutation on the interaction,Variant
1,with no effect,F102C

# Variants of: B1
# Details: with za2g_human AZGP1, P25311
row,effect of a mutation on the interaction,Variant
1,with no effect,F102C

# Variants of: B1
# Details: with bap1_human BAP1, Q92560
# Chain of bap1_human BAP1, Q92560 (Q92560 whole entry): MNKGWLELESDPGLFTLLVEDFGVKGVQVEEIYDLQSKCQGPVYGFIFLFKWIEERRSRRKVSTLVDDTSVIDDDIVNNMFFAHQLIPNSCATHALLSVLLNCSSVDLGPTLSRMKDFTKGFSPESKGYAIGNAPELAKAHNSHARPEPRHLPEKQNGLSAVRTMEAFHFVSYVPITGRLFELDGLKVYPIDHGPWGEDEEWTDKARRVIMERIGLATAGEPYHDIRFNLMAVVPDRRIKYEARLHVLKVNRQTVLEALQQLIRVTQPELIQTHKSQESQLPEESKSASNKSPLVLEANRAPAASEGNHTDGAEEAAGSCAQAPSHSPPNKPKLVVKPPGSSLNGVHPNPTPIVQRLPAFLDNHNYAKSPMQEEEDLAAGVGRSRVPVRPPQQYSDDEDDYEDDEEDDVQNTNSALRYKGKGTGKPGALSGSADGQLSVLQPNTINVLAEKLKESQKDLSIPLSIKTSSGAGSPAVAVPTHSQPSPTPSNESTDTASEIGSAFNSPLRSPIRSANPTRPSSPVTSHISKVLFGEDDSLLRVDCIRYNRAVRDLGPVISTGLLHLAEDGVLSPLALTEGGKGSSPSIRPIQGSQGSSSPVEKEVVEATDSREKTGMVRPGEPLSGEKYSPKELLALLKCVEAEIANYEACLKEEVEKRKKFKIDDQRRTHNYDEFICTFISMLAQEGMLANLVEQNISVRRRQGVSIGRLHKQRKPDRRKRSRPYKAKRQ
row,effect of a mutation on the interaction,Variant
1,with no effect,F102C

# Variants of: B1
# Details: with bard1_human BARD1, Q99728
# Chain of bard1_human BARD1, Q99728 (Q99728 whole entry): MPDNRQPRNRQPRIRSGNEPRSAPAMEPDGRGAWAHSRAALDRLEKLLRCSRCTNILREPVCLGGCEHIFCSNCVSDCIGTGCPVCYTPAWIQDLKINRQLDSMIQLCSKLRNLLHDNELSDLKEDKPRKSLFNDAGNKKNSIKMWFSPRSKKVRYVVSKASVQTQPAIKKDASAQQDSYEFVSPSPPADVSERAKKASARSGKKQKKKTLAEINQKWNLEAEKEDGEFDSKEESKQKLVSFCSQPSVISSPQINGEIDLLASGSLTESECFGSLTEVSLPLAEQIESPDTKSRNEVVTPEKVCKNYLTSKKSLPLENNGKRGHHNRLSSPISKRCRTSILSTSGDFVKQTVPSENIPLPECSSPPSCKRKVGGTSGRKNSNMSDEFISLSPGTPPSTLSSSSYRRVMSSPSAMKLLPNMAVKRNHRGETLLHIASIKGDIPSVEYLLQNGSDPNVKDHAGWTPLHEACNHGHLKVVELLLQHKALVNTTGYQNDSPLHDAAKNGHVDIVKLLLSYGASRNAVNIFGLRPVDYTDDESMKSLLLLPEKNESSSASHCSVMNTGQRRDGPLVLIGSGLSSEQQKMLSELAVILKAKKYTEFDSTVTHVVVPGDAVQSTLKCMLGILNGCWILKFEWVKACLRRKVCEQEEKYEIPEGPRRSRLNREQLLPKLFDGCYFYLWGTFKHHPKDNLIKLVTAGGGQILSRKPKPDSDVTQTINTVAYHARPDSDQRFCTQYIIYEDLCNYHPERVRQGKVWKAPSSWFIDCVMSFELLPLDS
row,effect of a mutation on the interaction,Variant
1,with no effect,F102C

# Variants of: B1
# Details: with bcor_human BCOR
row,effect of a mutation on the interaction,Variant
1,with no effect,F102C

# Variants of: B1
# Details: with birc2_human BIRC2, Q13490
row,effect of a mutation on the interaction,Variant
1,with no effect,F102C

# Variants of: B1
# Details: with brd4_human BRD4, O60885
# Remark: another data set of the same source
row,effect of a mutation on the interaction,Variant
1,with no effect,F102C

# Variants of: B1
# Details: with baba2_human BABAM2, Q9NXR7
row,effect of a mutation on the interaction,Variant
1,with no effect,F102C

# Variants of: B1
# Details: with btg1_human BTG1, P62324
# Chain of btg1_human BTG1, P62324 (P62324 whole entry): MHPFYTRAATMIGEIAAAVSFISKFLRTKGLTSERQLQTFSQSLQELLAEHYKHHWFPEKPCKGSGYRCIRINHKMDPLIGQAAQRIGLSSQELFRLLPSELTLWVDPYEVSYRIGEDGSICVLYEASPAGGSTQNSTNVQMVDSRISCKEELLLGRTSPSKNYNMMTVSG
row,effect of a mutation on the interaction,Variant
1,with no effect,F102C

# Variants of: B1
# Details: with btk_human BTK
row,effect of a mutation on the interaction,Variant
1,with no effect,F102C

# Variants of: B1
# Details: with ccnd1_human CCND1, P24385
row,effect of a mutation on the interaction,Variant
1,with no effect,F102C

# Variants of: B1
# Details: with ccnd2_human CCND2, P30279
row,effect of a mutation on the interaction,Variant
1,with no effect,F102C

# Variants of: B1
# Details: with ccnd3_human CCND3, P30281
row,effect of a mutation on the interaction,Variant
1,with no effect,F102C

# Variants of: B1
# Details: with cd44_human CD44, P16070
# Chain of cd44_human CD44, P16070 (P16070 whole entry): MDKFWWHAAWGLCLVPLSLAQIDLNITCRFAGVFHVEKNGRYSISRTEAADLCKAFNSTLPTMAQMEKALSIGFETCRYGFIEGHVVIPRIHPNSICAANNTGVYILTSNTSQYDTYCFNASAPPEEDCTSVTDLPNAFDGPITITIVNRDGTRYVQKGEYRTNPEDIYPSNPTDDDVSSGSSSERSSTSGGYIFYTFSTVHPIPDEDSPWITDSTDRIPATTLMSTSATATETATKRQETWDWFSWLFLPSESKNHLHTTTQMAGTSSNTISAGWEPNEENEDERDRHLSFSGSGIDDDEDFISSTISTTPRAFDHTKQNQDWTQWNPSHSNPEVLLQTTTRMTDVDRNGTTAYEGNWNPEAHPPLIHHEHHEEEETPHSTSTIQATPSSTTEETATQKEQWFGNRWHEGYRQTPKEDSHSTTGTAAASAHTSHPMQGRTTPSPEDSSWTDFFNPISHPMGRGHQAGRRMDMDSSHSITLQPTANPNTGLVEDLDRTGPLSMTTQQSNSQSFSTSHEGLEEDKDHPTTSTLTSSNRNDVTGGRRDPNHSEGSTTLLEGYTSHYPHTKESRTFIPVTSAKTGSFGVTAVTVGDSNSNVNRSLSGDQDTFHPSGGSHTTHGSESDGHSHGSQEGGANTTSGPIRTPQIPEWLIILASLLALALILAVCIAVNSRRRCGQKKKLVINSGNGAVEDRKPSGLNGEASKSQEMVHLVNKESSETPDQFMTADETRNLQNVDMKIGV
row,effect of a mutation on the interaction,Variant
1,with no effect,F102C

# Variants of: B1
# Details: with cd79b_human CD79B
row,effect of a mutation on the interaction,Variant
1,with no effect,F102C

# Variants of: B1
# Details: with cdc27_human CDC27, P30260
row,effect of a mutation on the interaction,Variant
1,with no effect,F102C

# Variants of: B1
# Details: with cdc73_human CDC73, Q6P1J9
row,effect of a mutation on the interaction,Variant
1,with no effect,F102C

# Variants of: B1
# Details: with cdk4_human CDK4, P11802
row,effect of a mutation on the interaction,Variant
1,with no effect,F102C

# Variants of: B1
# Details: with cdk6_human CDK6, Q00534
row,effect of a mutation on the interaction,Variant
1,with no effect,F102C

# Variants of: B1
# Details: with cdn2c_human CDKN2C
row,effect of a mutation on the interaction,Variant
1,with no effect,F102C

# Variants of: B1
# Details: with chd1l_human CHD1L
row,effect of a mutation on the interaction,Variant
1,with no effect,F102C

# Variants of: B1
# Details: with chd2_human CHD2, O14647
row,effect of a mutation on the interaction,Variant
1,with no effect,F102C

# Variants of: B1
# Details: with ch3l1_human CHI3L1, P36222
row,effect of a mutation on the interaction,Variant
1,with no effect,F102C

# Variants of: B1
# Details: with ctla4_human CTLA4, P16410
row,effect of a mutation on the interaction,Variant
1,with no effect,F102C

# Variants of: B1
# Details: with cul3_human CUL3, Q13618
# Chain of cul3_human CUL3, Q13618 (Q13618 whole entry): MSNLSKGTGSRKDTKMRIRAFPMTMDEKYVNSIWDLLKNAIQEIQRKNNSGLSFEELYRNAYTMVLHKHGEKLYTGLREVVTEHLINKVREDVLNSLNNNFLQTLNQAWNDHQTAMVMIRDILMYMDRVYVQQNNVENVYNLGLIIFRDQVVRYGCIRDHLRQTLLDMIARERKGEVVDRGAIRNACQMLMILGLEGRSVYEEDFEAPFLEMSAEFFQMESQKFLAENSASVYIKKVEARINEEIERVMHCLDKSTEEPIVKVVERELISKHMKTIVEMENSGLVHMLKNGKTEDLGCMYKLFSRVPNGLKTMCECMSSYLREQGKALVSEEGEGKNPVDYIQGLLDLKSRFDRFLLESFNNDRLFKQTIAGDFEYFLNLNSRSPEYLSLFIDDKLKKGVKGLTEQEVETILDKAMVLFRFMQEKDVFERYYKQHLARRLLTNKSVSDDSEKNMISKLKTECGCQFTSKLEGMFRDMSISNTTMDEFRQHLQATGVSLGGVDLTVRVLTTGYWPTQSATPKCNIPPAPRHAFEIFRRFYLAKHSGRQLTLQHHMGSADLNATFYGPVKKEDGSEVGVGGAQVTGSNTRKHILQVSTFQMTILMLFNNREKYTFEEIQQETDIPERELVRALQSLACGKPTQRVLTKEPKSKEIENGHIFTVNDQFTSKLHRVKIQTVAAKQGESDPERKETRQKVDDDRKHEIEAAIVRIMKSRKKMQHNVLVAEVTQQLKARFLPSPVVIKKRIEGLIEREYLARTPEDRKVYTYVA
row,effect of a mutation on the interaction,Variant
1,with no effect,F102C

# Variants of: B1
# Details: with cul4b_human CUL4B
row,effect of a mutation on the interaction,Variant
1,with no effect,F102C

# Variants of: B1
# Details: with daxx_human DAXX
row,effect of a mutation on the interaction,Variant
1,with no effect,F102C

# Variants of: B1
# Details: with ddx5_human DDX5, P17844
row,effect of a mutation on the interaction,Variant
1,with no effect,F102C

# Variants of: B1
# Details: with dll3_human DLL3, Q9NYJ7
row,effect of a mutation on the interaction,Variant
1,with no effect,F102C

# Variants of: B1
# Details: with duox2_human DUOX2, Q9NRD8
row,effect of a mutation on the interaction,Variant
1,with no effect,F102C

# Variants of: B1
# Details: with e2f2_human E2F2, Q14209
row,effect of a mutation on the interaction,Variant
1,with no effect,F102C

# Variants of: B1
# Details: with e2f3_human E2F3, O00716
row,effect of a mutation on the interaction,Variant
1,with no effect,F102C

# Variants of: B1
# Details: with e2f5_human E2F5, Q15329
row,effect of a mutation on the interaction,Variant
1,with no effect,F102C

# Variants of: B1
# Details: with e2f6_human E2F6, O75461
# Chain of e2f6_human E2F6, O75461 (O75461 whole entry): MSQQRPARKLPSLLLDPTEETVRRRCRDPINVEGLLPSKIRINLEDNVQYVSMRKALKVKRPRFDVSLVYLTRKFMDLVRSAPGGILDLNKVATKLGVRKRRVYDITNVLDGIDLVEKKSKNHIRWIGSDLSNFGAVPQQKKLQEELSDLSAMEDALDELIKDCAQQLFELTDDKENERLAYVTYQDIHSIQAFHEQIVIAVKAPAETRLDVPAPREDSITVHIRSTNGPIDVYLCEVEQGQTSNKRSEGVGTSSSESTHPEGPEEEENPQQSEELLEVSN
row,effect of a mutation on the interaction,Variant
1,with no effect,F102C

# Variants of: B1
# Details: with e2f8_human E2F8, A0AVK6
# Chain of e2f8_human E2F8, A0AVK6 (A0AVK6 whole entry): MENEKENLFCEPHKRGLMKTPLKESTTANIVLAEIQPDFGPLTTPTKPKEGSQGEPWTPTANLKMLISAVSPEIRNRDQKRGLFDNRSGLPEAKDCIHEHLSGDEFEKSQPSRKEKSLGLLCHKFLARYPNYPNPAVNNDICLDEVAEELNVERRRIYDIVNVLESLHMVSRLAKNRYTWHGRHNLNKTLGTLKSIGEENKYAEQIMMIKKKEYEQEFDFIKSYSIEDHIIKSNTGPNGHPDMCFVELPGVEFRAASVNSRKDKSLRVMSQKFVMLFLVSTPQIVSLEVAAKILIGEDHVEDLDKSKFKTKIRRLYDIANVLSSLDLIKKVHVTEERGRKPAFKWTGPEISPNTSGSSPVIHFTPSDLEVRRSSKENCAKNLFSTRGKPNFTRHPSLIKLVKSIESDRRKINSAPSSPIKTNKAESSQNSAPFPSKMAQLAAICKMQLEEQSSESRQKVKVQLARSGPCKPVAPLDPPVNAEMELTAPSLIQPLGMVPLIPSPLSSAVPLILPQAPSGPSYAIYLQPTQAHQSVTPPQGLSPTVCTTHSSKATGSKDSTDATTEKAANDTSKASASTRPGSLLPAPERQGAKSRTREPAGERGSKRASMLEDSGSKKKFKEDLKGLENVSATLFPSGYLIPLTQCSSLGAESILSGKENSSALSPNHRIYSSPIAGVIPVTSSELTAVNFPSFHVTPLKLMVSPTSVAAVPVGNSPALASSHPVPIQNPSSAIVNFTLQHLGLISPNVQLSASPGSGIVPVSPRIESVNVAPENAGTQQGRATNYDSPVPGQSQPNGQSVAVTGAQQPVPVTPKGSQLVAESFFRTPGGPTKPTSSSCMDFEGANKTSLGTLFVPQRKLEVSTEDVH
row,effect of a mutation on the interaction,Variant
1,with no effect,F102C

# Variants of: B1
# Details: with if4e_human EIF4E
row,effect of a mutation on the interaction,Variant
1,with no effect,F102C

# Variants of: B1
# Details: with epha7_human EPHA7, Q15375
row,effect of a mutation on the interaction,Variant
1,with no effect,F102C

# Variants of: B1
# Details: with ephb1_human EPHB1, P54762
row,effect of a mutation on the interaction,Variant
1,with no effect,F102C

# Variants of: B1
# Details: with erbb3_human ERBB3, P21860
row,effect of a mutation on the interaction,Variant
1,with no effect,F102C

# Variants of: B1
# Details: with erbb4_human ERBB4, Q15303
row,effect of a mutation on the interaction,Variant
1,with no effect,F102C

# Variants of: B1
# Details: with esr1_human ESR1, P03372
row,effect of a mutation on the interaction,Variant
1,with no effect,F102C

# Variants of: B1
# Details: with etv1_human ETV1, P50549
row,effect of a mutation on the interaction,Variant
1,with no effect,F102C

# Variants of: B1
# Details: with ezh1_human EZH1, Q92800
row,effect of a mutation on the interaction,Variant
1,with no effect,F102C

# Variants of: B1
# Details: with ezh2_human EZH2, Q15910
row,effect of a mutation on the interaction,Variant
1,with no effect,F102C

# Variants of: B1
# Details: with facd2_human FANCD2, Q9BXW9
row,effect of a mutation on the interaction,Variant
1,with no effect,F102C

# Variants of: B1
# Details: with fgf19_human FGF19, O95750
# Chain of fgf19_human FGF19, O95750 (O95750 whole entry): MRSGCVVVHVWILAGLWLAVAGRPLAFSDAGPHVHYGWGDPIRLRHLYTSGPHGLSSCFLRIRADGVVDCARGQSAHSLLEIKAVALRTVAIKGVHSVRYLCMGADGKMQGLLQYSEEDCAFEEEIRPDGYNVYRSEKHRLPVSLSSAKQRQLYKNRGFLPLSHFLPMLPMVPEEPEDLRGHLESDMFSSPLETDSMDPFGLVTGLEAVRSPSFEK
row,effect of a mutation on the interaction,Variant
1,with no effect,F102C

# Variants of: B1
# Details: with fgfp1_human FGFBP1, Q14512
row,effect of a mutation on the interaction,Variant
1,with no effect,F102C

# Variants of: B1
# Details: with fgfr4_human FGFR4, P22455
row,effect of a mutation on the interaction,Variant
1,with no effect,F102C

# Variants of: B1
# Details: with fumh_human FH
row,effect of a mutation on the interaction,Variant
1,with no effect,F102C

# Variants of: B1
# Details: with fzr1_human FZR1, Q9UM11
row,effect of a mutation on the interaction,Variant
1,with no effect,F102C

# Variants of: B1
# Details: with gbra6_human GABRA6, Q16445
row,effect of a mutation on the interaction,Variant
1,with no effect,F102C

# Variants of: B1
# Details: with gata1_human GATA1, P15976
row,effect of a mutation on the interaction,Variant
1,with no effect,F102C

# Variants of: B1
# Details: with p66b_human GATAD2B
row,effect of a mutation on the interaction,Variant
1,with no effect,F102C

# Variants of: B1
# Details: with gna11_human GNA11, P29992
row,effect of a mutation on the interaction,Variant
1,with no effect,F102C

# Variants of: B1
# Details: with gna13_human GNA13, Q14344
row,effect of a mutation on the interaction,Variant
1,with no effect,F102C

# Variants of: B1
# Details: with gnaq_human GNAQ
row,effect of a mutation on the interaction,Variant
1,with no effect,F102C

# Variants of: B1
# Details: with grm1_human GRM1, Q13255
row,effect of a mutation on the interaction,Variant
1,with no effect,F102C

# Variants of: B1
# Details: with grm3_human GRM3, Q14832
row,effect of a mutation on the interaction,Variant
1,with no effect,F102C

# Variants of: B1
# Details: with gtpb4_human GTPBP4, Q9BZE4
row,effect of a mutation on the interaction,Variant
1,with no effect,F102C

# Variants of: B1
# Details: with h33_human H3-3A
row,effect of a mutation on the interaction,Variant
1,with no effect,F102C

# Variants of: B1
# Details: with hdac1_human HDAC1, Q13547
row,effect of a mutation on the interaction,Variant
1,with no effect,F102C

# Variants of: B1
# Details: with hdac3_human HDAC3, O15379
# Chain of hdac3_human HDAC3, O15379 (O15379 whole entry): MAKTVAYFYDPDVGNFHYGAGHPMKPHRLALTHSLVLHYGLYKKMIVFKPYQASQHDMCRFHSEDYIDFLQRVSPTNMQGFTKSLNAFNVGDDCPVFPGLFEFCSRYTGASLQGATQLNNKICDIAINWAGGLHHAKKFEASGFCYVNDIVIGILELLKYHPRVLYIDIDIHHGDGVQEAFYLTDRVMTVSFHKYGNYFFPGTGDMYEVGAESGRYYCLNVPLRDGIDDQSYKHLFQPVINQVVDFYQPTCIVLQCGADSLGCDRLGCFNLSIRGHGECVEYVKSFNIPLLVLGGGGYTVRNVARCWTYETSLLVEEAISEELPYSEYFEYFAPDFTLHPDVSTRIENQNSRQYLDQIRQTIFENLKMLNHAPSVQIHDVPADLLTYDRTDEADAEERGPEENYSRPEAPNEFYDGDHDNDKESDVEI
row,effect of a mutation on the interaction,Variant
1,with no effect,F102C

# Variants of: B1
# Details: with hgf_human HGF
row,effect of a mutation on the interaction,Variant
1,with no effect,F102C

# Variants of: B1
# Details: with h31_human H3C1, P68431
row,effect of a mutation on the interaction,Variant
1,with no effect,F102C

# Variants of: B1
# Details: with hlab_human HLA-B
row,effect of a mutation on the interaction,Variant
1,with no effect,F102C

# Variants of: B1
# Details: with il7ra_human IL7R
row,effect of a mutation on the interaction,Variant
1,with no effect,F102C

# Variants of: B1
# Details: with int12_human INTS12, Q96CB8
row,effect of a mutation on the interaction,Variant
1,with no effect,F102C

# Variants of: B1
# Details: with jak1_human JAK1, P23458
row,effect of a mutation on the interaction,Variant
1,with no effect,F102C

# Variants of: B1
# Details: with jak3_human JAK3, P52333
row,effect of a mutation on the interaction,Variant
1,with no effect,F102C

# Variants of: B1
# Details: with kat2a_human KAT2A
row,effect of a mutation on the interaction,Variant
1,with no effect,F102C
